Measured values as given in paper PMC3120740, “WRKY Transcription Factors Involved in Activation of SA Biosynthesis Genes”.
Changes are numbered by the printed parent chain.

Experiments:
Conditions in all cases: protein: recombinant; tags: N-terminal GST (pGEX-KG); label: 32P-dCTP end-fill (Klenow); 5'-GGG overhangs filled in with Klenow
GST-WRKY28 [1] = molecular target: T1, GST-WRKY28 (Arabidopsis thaliana, UniProt Q8VWJ2 1-318); assay: EMSA; 0.5 ug protein, ~0.01 pmol probe; 3 uL 5x buffer (20% glycerol, 5 mM MgCl2, 2.5 mM EDTA, 2.5 mM DTT, 250 mM NaCl, 50 mM Tris-HCl pH 7.5, 0.25 mg/mL poly(dI-dC)) in 14 uL + 1 uL probe (final about 50 mM NaCl, 10 mM Tris, 1 mM MgCl2); room temperature, 20 min
GST-WRKY28 [2] = molecular target: T1, GST-WRKY28; assay: EMSA; as strong as wild type; 0.5 ug protein, ~0.01 pmol probe; 3 uL 5x buffer (20% glycerol, 5 mM MgCl2, 2.5 mM EDTA, 2.5 mM DTT, 250 mM NaCl, 50 mM Tris-HCl pH 7.5, 0.25 mg/mL poly(dI-dC)) in 14 uL + 1 uL probe (final about 50 mM NaCl, 10 mM Tris, 1 mM MgCl2); room temperature, 20 min
GST-WRKY28 [3] = molecular target: T1, GST-WRKY28; assay: EMSA; unaltered binding; 0.5 ug protein, ~0.01 pmol probe; 3 uL 5x buffer (20% glycerol, 5 mM MgCl2, 2.5 mM EDTA, 2.5 mM DTT, 250 mM NaCl, 50 mM Tris-HCl pH 7.5, 0.25 mg/mL poly(dI-dC)) in 14 uL + 1 uL probe (final about 50 mM NaCl, 10 mM Tris, 1 mM MgCl2); room temperature, 20 min

T1 sequence (Q8VWJ2 whole entry): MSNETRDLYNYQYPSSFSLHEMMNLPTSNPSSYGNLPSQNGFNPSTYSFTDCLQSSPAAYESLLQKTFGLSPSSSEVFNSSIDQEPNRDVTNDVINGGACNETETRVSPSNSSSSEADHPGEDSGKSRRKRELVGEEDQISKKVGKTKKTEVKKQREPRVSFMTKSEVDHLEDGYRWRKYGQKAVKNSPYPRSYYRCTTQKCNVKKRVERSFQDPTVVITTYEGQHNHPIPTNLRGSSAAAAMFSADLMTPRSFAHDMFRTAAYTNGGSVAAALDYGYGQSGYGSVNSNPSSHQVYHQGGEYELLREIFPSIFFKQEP

B1: m2.2 (dsDNA)
DNA 1: ATTTCCCGGTATTTCAATTTCCCAAGATAT
DNA 2: ATATCTTGGGAAATTGAAATACCGGGAAAT
B1: no binding (GST-WRKY28 [1]).

B2: m2.3 (dsDNA)
DNA 1: ATTTCCCGGTATTTCAATTTGTGGAGATAT
DNA 2: ATATCTCCACAAATTGAAATACCGGGAAAT
B2: no binding (GST-WRKY28 [1]).

B3: m2.4 (dsDNA)
DNA 1: ATTTCCCGGTATTTCAATTTGTCACCATAT
DNA 2: ATATGGTGACAAATTGAAATACCGGGAAAT
B3: binds (GST-WRKY28 [1]).

B4: m2.5 (dsDNA)
DNA 1: B3 DNA 1 with C25G, C26A
DNA 2: B3 DNA 2 with G5T, G6C
B4: binds (GST-WRKY28 [2]).

B5: m2.7 (dsDNA)
DNA 1: ATTTCCCGGTATTTCACCTTGTCAAGATAT
DNA 2: ATATCTTGACAAGGTGAAATACCGGGAAAT
B5: no binding (GST-WRKY28 [1]).

B6: m2.8 (dsDNA)
DNA 1: ATTTCCCGGTATTTCAATTTGTCAAGGGAT
DNA 2: ATCCCTTGACAAATTGAAATACCGGGAAAT
B6: binds (GST-WRKY28 [3]).

B7: ICS1 -278 (dsDNA)
DNA 1: CTAATAATAATAGATCAAACAATTAACTGA
DNA 2: TCAGTTAATTGTTTGATCTATTATTATTAG
B7: no binding (GST-WRKY28 [1]).

B8: ICS1 -648 (dsDNA)
DNA 1: TTGCAATTTGTAGTGACATGTAATGTTTTT
DNA 2: AAAAACATTACATGTCACTACAAATTGCAA
B8: no binding (GST-WRKY28 [1]).

B9: ICS1 -725 (dsDNA)
DNA 1: ATTTTAGAAATGTGTCAAAATTTAAAGGAG
DNA 2: CTCCTTTAAATTTTGACACATTTCTAAAAT
B9: no binding (GST-WRKY28 [1]).

B10: ICS1 -844 WK-like box (dsDNA)
DNA 1: AATAGTATTGATTTTCCAAATTTAATTATA
DNA 2: TATAATTAAATTTGGAAAATCAATACTATT
B10: no binding (GST-WRKY28 [1]).

B11: m1 (dsDNA)
DNA 1: B1 DNA 1 with C21G, C22T
DNA 2: B2 DNA 2 with C7T, C8G
B11: binds (GST-WRKY28 [1]).

B12: m2 (dsDNA)
DNA 1: ATTTCTGACTATTTCAATTTCCGGAGATAT
DNA 2: ATATCTCCGGAAATTGAAATAGTCAGAAAT
B12: binds (GST-WRKY28 [1]).

B13: m1+2 (dsDNA)
DNA 1: B1 DNA 1 with C23G, A24G
DNA 2: B2 DNA 2 with A9G, C10G
B13: no binding (GST-WRKY28 [1]).

B14: m2.1 (dsDNA)
DNA 1: ATTTCCCGGTATTTCAATGGGTCAAGATAT
DNA 2: ATATCTTGACCCATTGAAATACCGGGAAAT
B14: binds (GST-WRKY28 [1]).
